From paper PMC7804308

Tests used:
[1] = biological target: BG505 SOSIP.664 gp140 trimer (HIV); assay: SPR
[2] = biological target: F84T Malay BanLec (Musa acuminata ssp. malaccensis); assay: crystal structure; WT and F84T Malay BanLec each at 5 mg/mL in 10 mM HEPES pH 7.5, 150 mM NaCl; crystals grown at 20 °C from ammonium sulfate; dimers in the asymmetric unit
[3] = biological target: WT Malaysian banana lectin (Malay BanLec) (Musa acuminata ssp. malaccensis); assay: as above

Row | Substance | Kd [1] [nM] | koff [1] [s⁻¹] | kon [1] [M⁻¹ s⁻¹] | stoichiometry N [2] | stoichiometry N [3]
1 | F84T Malay BanLec (natural protein) | 0.368 | 0.000266 | 720000 | 2 | 
2 | griffithsin (GRFT) (from UniProt P84801 1-121) (natural protein) | 0.137 | 0.00074 | 5.56e+06 |  | 
3 | WT Malaysian banana lectin (Malay BanLec) (natural protein) | 0.122 | 0.00014 | 1.33e+06 |  | 2
